Results on one molecule are retold here after patent publication US20170184603A1 (MORPHOTEK, published 2017).

The target in the test is T1, purified FR-α (UniProt P15328 25-234, limits assumed).
T1 construct: also called folate receptor-alpha; alpha-folate receptor
The test can be described thus: surface plasmon resonance spectroscopy. (SPR reads the build-up and loss of mass on a sensor chip optically.)

T1 sequence (P15328 25-234 limits assumed): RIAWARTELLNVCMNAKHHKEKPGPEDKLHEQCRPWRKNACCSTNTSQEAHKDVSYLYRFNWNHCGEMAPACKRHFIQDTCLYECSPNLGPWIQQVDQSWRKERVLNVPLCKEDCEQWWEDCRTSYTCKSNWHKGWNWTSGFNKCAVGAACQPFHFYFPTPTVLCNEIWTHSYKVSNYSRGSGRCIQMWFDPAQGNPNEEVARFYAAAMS

B1: anti-FR-α antibody comprising a heavy chain comprising an amino acid sequence of SEQ ID NO:5 and a light chain comprising an amino acid sequence of SEQ ID NO:2 (antibody, human IgG1, kappa, V domains shown)
VH: EVQLVESGGGVVQPGRSLRLSCSASGFTFSGYGLSWVRQAPGKGLEWVAMISSGGSYTYYADSVKGRFAISRDNAKNTLFLQMDSLRPEDTGVYFCARHGDDPAWFAYWGQGTPVTVSS
VL: DIQLTQSPSSLSASVGDRVTITCSVSSSISSNNLHWYQQKPGKAPKPWIYGTSNLASGVPSRFSGSGSGTDYTFTISSLQPEDIATYYCQQWSSYPYMYTFGQGTKVEIKR
notes: also called antibody of the invention; humanized anti-FR-α antibody
The Kd is the constant that tells how readily two partners part at equilibrium. Higher therefore signals a looser complex. The koff is the first-order rate constant of dissociation. Low values mean slow dissociation, high ones fast dissociation. In general, kon refers to the second-order rate constant of association. Lower therefore signals slower complex formation. For B1, binding was characterised by a dissociation constant (Kd) of 2.23 nM, the koff is ~0.000502 s⁻¹ and the kon was ~225000 M⁻¹ s⁻¹.
